Measurements taken from US9333272B2, “Fibrin binding peptide conjugates for diagnostic and therapeutic applications” (Bracco Imaging SpA, priority 2006, dated 2016).
Ends that are not written are not given here.

Columns and labels:
[1] = biological target: T1, fibrin in human plasma clots (Homo sapiens, UniProt P02671+P02675+P02679); assay: In vitro MRI of plasma clots at 100 μM (Example 14)
T1 construct: tissue Dade Behring Control Plasma N; host or cells: clots formed in vitro from pooled human plasma with Pathromtin SL and CaCl2
T1 sequence (P02671 36-629 limits assumed): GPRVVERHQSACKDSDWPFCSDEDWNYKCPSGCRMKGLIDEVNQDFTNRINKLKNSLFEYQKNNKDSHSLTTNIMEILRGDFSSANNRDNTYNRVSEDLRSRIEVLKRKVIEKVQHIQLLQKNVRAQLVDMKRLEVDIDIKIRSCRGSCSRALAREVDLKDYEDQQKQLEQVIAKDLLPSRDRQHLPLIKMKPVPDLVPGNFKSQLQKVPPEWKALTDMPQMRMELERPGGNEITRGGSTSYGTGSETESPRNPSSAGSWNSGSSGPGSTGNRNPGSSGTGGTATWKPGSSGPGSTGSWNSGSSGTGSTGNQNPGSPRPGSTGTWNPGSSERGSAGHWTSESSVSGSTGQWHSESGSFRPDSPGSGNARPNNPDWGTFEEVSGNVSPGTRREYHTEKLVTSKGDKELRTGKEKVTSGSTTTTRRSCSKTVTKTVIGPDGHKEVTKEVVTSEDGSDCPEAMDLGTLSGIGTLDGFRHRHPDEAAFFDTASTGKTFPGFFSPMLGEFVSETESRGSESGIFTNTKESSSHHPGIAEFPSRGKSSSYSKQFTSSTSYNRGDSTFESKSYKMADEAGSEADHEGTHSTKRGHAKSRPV
T1 sequence (P02675 45-491 limits assumed): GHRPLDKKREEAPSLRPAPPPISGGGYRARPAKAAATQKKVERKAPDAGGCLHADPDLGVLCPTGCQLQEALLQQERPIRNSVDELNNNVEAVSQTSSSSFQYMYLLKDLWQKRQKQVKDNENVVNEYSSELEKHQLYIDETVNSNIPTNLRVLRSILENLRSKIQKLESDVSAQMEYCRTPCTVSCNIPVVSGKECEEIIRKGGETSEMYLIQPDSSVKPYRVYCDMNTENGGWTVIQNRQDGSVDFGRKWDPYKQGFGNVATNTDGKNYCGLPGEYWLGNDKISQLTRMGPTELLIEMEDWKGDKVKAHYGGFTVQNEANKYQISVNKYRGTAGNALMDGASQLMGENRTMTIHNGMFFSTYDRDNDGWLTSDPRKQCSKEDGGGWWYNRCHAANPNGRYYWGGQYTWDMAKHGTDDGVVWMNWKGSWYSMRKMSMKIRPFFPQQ
T1 sequence (P02679 27-437 isoform P02679-2 limits assumed): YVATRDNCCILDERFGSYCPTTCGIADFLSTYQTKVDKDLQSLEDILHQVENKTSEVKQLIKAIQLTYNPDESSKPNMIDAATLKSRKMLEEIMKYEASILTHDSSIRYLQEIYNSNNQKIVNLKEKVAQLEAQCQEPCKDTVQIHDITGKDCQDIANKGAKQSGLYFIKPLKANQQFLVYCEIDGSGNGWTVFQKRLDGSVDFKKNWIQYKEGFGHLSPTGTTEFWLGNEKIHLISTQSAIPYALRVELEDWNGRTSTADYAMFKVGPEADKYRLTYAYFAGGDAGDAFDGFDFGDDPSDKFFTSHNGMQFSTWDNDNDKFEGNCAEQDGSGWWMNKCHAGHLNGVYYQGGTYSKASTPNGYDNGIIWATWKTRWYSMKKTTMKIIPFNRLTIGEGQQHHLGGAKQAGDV
Method: Small plasma clots from different species (human, guinea pig and mouse) were formed by combining citrate plasma (1:3,v/v) phospholipids (Reagent Pathromtin) and CaCl2 0.008 M (Dade Behring, Germany) into small 2 ml vials at 37° C. Clots were washed 3 times with TBS 1× and incubated with contrast agents at a concentration of 100 μM of complex, for 30 minutes at 37° C. Two clots were prepared for each solution of incubation. After the incubation clots were washed 4 times with TBS 1× and placed into small vials filled with TBS 1× for MRI analysis. […] Maximum signal intensity of each clot was measured in recovered MR images and compared to the signal from clots incubated with TBS. […]
(§1) High resolution MRI was then performed at 2 Tesla by using T1-weighted Spin-Echo (SE) sequences. T1 maps were also calculated from the acquisitions of 2D gradient echo images or inversion recovery spin echo images.
(§2) The maximum signal intensity was measured within a region of interest (ROI) including a clot, drawn by an operator on each MR image using a dedicated software (MR Research Systems Ltd, Surrey UK). Max signal intensity enhancement (Enh %) was determined as: Enh %=100*(SIx−SI0)/SI0 where SI0 and SIx are the signal intensity of clots incubated without and with test compounds, respectively.

[2] = biological target: T2, fibrin in human clots (Homo sapiens, UniProt P02671+P02675+P02679); assay: In vitro MRI of human clots at different incubation concentrations (Example 15)
T2 construct: tissue Dade Behring Control Plasma N; host or cells: clots formed in vitro from pooled human plasma with Pathromtin SL and CaCl2
T2 sequence (P02671 36-629 limits assumed): T1 sequence (P02671 36-629 limits assumed)
T2 sequence (P02675 45-491 limits assumed): T1 sequence (P02675 45-491 limits assumed)
T2 sequence (P02679 27-437 isoform P02679-2 limits assumed): T1 sequence (P02679 27-437 isoform P02679-2 limits assumed)
Method: By following the above procedure, a second wider group of chelate compounds of the invention including, for instance, Chelate Complexes from 1 to 7 and the Reference Compounds from 1 to 6 were tested on human clots at different incubation concentration (25 to 400 μM of complex). Signal enhancement (%) was then determined for each clots by MR Imaging at 2T and corresponding Gd content in clots was measured by ICP.
By comparing the signal enhancement in clots, for instance at incubation concentration of 100 μM of peptide, tested compounds could be classified in term of performance as follows (Max signal enhancement was normalized to the chelate complex 4): […]
as §1, §2

**Q.** How did the “Signal enhancement in clots, comparison in words” value ([1]; 100 μM of complex) turn out when “Chelate Complex 1: Gd chelate (four DTPA-Glu) conjugated via linker to fibrin-binding peptide SEQ ID NO:001 (WQPCPAESWTFCWDPGGGK; cysteine pairing not given here; also: Gd chelate (four DTPA-Glu) conjugated via linker, site not given here, metal complex: Gd)” was run?
**A.** provides the maximum signal enhancement

**Q.** And the “Max signal Enhancement at 100 μM” value ([1]; clots incubated with 100 μM of complex, 30 min, 37°C, T1-weighted MRI at 2T, normalized to chelate complex 1)?
**A.** 100%

**Q.** What about the “Max signal Enhancement (%) at 100 μM” value ([2]; human clots, incubation 100 μM of peptide, MRI at 2T, normalized to chelate complex 4) of the same substance?
**A.** 93.2%

**Q.** And the “Signal enhancement in clots, comparison in words” value ([2]; incubation concentration 100 μM)?
**A.** best results
